Assay results taken from PMC10128040, “Structural Elucidation of a Protective B Cell Epitope on Outer Surface Protein C (OspC) of the Lyme Disease Spirochete, Borreliella burgdorferi” (mBio, 2023).

Experiments:
[1] = target: recombinant OspC type K (OspCK), residues 38 to 202 (B. burgdorferi strain 297); assay: crystal structure; OspCB alone (22°C, 100 mM sodium phosphate citrate pH 4.2, 41.9% PEG 600; 1.5 Å) and OspCK alone (4°C, 100 mM Tris pH 8.5, 40% PEG 400, 200 mM LiSO4; 1.9 Å); P2_(1)
[2] = target: recombinant OspC type B (OspCB), residues 38 to 202 (B. burgdorferi strain ZS7) (UniProt Q44977); assay: as above
[3] = target: the molecule itself; assay: crystal structure; B5 Fab complexed with OspCA 1:1, 10 mg/mL; sitting drop, 22°C, 100 mM sodium cacodylate pH 6.5, 5% PEG 8K, 40% MPD; 2.7 Å, P2_(1)2_(1)2
[4] = target: T1, biotinylated recombinant OspC type B (OspCB) (Borreliella burgdorferi strain ZS7, …, UniProt Q44977, biotinylated (site not stated)); assay: ELISA; capture ELISA: B5 IgG coated at 1 μg/mL in PBS; biotinylated OspC types A, B, K diluted 2-fold from 20 μg/mL; detected with avidin-HRP; conditions: both partners purified
T1 construct: Outer surface protein C type B, B. burgdorferi strain ZS7, residues 38 to 202; also called biotinylated OspC type B; biotin-tagged recombinant OspC type B; not shown: deca-histidine, N-terminal, cleaved

[5] = target: T2, biotinylated recombinant OspC type A (OspCA) (Borreliella burgdorferi strain B31, …, UniProt Q07337, biotinylated (site not stated)); assay: as above; conditions: both partners purified
T2 construct: Outer surface protein C type A, B. burgdorferi strain B31, residues 38 to 201; also called biotinylated OspCA; biotin-tagged recombinant OspC type A; not shown: deca-histidine, N-terminal, cleaved; SUMO, N-terminal, cleaved

[6] = target: native OspC type A (OspCA) on the surface of viable B. burgdorferi strain B313 (B. burgdorferi (endogenous in strain B313)) (UniProt Q07337); assay: flow cytometry on cells; 5 x 10^6 live B. burgdorferi B313 cells incubated with 10 μg/mL chimeric B5 IgG1 at 37°C for 1 h in BSK-II; goat anti-human IgG-Alexa 647; BD FACSCalibur
[7] = target: T3, recombinant OspC type A (OspCA), residues 38 to 201 (B. burgdorferi strain B31, UniProt Q07337); assay: crystal structure; B5 Fab complexed with OspCA 1:1, 10 mg/mL; sitting drop, 22°C, 100 mM sodium cacodylate pH 6.5, 5% PEG 8K, 40% MPD; 2.7 Å, P2_(1)2_(1)2; conditions: both partners purified
T3 construct: Outer surface protein C type A, B. burgdorferi strain B31, residues 38 to 201; Homodimer; also called rOspC type A; outer surface protein C; not shown: deca-histidine, N-terminal, cleaved; SUMO, N-terminal, cleaved

[8] = target: T2, biotinylated recombinant OspC type A …; assay: BLI; biotinylated OspCA (3 μg/mL) captured on streptavidin biosensors; MAb B5 100 to 1.56 nM, 5 min association, 30 min dissociation; PBS with 2% BSA; 1:2 bivalent analyte model; apparent; Octet RED96e; conditions: both partners purified

recombinant OspC type K (OspCK), residues 38 to 202 (domain or fragment)
stoichiometry N [1]: 2

recombinant OspC type B (OspCB), residues 38 to 202 (from UniProt Q44977 38-202) (domain or fragment)
stoichiometry N [2]: 2

B1: recombinant OspC type A (OspCA), residues 38 to 201 (domain or fragment, B. burgdorferi strain B31, UniProt Q07337 38-201, looked up)
chain: KGPNLTEISKKITDSNAVLLAVKEVEALLSSIDEIAAKAIGKKIHQNNGLDTENNHNGSLLAGAYAISTLIKQKLDGLKNEGLKEKIDAAKKCSETFTNKLKEKHTDLGKEGVTDADAKEAILKTNGTKTKGAEELGKLFESVEVLSKAAKEMLANSVKELTSP
notes: Outer surface protein C type A, B. burgdorferi strain B31, residues 38 to 201; Homodimer; also called rOspC type A; outer surface protein C; not shown: deca-histidine, N-terminal, cleaved; SUMO, N-terminal, cleaved
stoichiometry N [3]: 2

B2: chimeric B5 IgG1 (mouse B5 VH and VL on human IgG1 Fc and kappa light chain) (antibody, V domains shown)
VH: EVQLEESGPEQKKPGETVMMSCKASGYTFTDHSMHWVKQAPGKGLKWMGWINTETGEPTCADDFKGRFALSLETSSRTAFLQINNLKNEDTAIYFCIGRWGYYVYWGQGTTLVVSS
VL: DIQMTQSPASLSVSVGESVTIICRASENINSNLAWYQQKQGKPPQLLVYAATNLAGGVPSRFSGSGSGTQYSLKINSLQSEDFGTYYCQHVWGSPWTFGGGTKLEIK
notes: mouse B5 VH, as the VH of the heavy chain of m1; human IgG1 heavy chain constant region from the 'human IgG1 Fc' expression vector; mouse B5 VL, as the VL of the light chain of m1; human kappa light chain constant region from the expression vector; IgG1, kappa; also called chimeric derivative of B5; source: Expi293 cells, transfected, purified; copies: 2 + 2
binding result [4]: no binding (tested: 20 μg/mL) | binding result [5]: binds | MFI [6]: > 3200

B3: B5 Fab fragment (Fab, V domains shown)
VH: EVQLEESGPEQKKPGETVMMSCKASGYTFTDHSMHWVKQAPGKGLKWMGWINTETGEPTCADDFKGRFALSLETSSRTAFLQINNLKNEDTAIYFCIGRWGYYVYWGQGTTLVVSS
VL: DIQMTQSPASLSVSVGESVTIICRASENINSNLAWYQQKQGKPPQLLVYAATNLAGGVPSRFSGSGSGTQYSLKINSLQSEDFGTYYCQHVWGSPWTFGGGTKLEIK
notes: VH and CH1 of mouse MAb B5; VL and CL of mouse MAb B5; Fab of the mouse IgG2a MAb B5; also called Fab B5; source: papain digestion of B5 IgG from the CDC; Fc depleted by protein A FPLC; purified by SEC (Superdex 200)
stoichiometry N [7]: 1

B4: B5 IgG (as used for BLI and HX-MS; mouse IgG2a or chimeric IgG1 not told) (antibody, V domains shown)
VH: EVQLEESGPEQKKPGETVMMSCKASGYTFTDHSMHWVKQAPGKGLKWMGWINTETGEPTCADDFKGRFALSLETSSRTAFLQINNLKNEDTAIYFCIGRWGYYVYWGQGTTLVVSS
VL: DIQMTQSPASLSVSVGESVTIICRASENINSNLAWYQQKQGKPPQLLVYAATNLAGGVPSRFSGSGSGTQYSLKINSLQSEDFGTYYCQHVWGSPWTFGGGTKLEIK
notes: mouse B5 VH, as the VH of the heavy chain of m1; mouse B5 VL, as the VL of the light chain of m1; The methods say the chimeric IgG1 was used for dot blot and flow cytometry, which may mean that the mouse IgG2a was used here; also called MAb B5; B5 MAb; copies: 2 + 2
Kd [8]: ~0.2 nM
